Values of other authors, collected in article PMC4651712.

Target: PTHR1 (Homo sapiens) (UniProt Q03431)
Chain of UniProt Q03431 (Q03431 27-593): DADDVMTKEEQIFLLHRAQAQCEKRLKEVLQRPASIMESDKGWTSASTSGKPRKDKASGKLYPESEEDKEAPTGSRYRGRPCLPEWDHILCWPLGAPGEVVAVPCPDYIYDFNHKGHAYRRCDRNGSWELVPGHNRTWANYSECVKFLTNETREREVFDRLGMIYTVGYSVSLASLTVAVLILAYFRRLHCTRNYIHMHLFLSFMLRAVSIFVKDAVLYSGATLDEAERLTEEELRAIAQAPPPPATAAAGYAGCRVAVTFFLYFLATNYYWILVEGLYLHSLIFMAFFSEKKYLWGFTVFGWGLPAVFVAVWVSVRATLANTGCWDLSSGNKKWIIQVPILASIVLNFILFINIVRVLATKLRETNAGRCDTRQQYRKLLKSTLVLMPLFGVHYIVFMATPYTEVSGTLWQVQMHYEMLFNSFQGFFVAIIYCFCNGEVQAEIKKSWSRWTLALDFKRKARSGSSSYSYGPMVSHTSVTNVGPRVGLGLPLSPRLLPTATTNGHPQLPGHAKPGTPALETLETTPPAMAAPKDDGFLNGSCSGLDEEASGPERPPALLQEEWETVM

**Q.** With PTH (from UniProt P01270) as the substance, how does the Kd read?
**A.** 1 nM
